# Laboratory results published in PMC4503747, “The Gcn2 Regulator Yih1 Interacts with the Cyclin Dependent Kinase Cdc28 and Promotes Cell Cycle Progression through G2/M in Budding Yeast” (PLoS ONE, 2015).
# T1: GST-Yih1*H2 (E87A and D90A in helix H2 of the RWD domain) (S. cerevisiae, UniProt P25637 1-258, E87A | D90A)
# T1 construct: Yih1, S. cerevisiae, with alanine substitutions of Glu-87 and Asp-90;; source: S. cerevisiae yih1Δ strain MSY-Y2, galactose-inducible promoter, in whole cell extract
# T1 sequence (looked up): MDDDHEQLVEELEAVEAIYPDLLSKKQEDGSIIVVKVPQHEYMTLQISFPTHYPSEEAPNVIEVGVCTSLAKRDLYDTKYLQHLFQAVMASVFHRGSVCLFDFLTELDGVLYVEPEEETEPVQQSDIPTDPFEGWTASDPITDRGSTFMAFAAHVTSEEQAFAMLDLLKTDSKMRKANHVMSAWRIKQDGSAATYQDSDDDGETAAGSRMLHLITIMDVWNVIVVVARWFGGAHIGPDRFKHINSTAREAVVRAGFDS
# B1: Cdc28 (endogenous, yeast whole cell extract) (natural protein)
# chain: not shown
# notes: Cdc28, cyclin-dependent kinase of S. cerevisiae, endogenous; In the extract Cdc28 may be in complexes with cyclins and other regulators; also called endogenous Cdc28; native Cdc28; source: endogenous, S. cerevisiae whole cell extract
# Molecular target: T1, GST-Yih1*H2 (E87A and D90A in helix H2 …)
# Experiment: pull-down; in vivo GST pull-down: GST fusions overexpressed in yeast from a galactose-inducible promoter (yih1Δ strains; gcn1Δ strain H2556 for the fragments; also cells arrested in G1 with α-factor and released), WCE (1-2 mg) on glutathione beads, immunoblot for endogenous proteins
# Conditions: partners not purified
binder,measurement,value
B1,fold increase of co-precipitated Cdc28 against wild type GST-Yih1,~5 fold
